Experiments:
Assay in all cases: ZFP domain; assay not described
Conditions in all cases: tags: FokI C-terminal, 4-aa linker
sca-36a ZFP-FokI = sca-36a ZFP-FokI (synthetic)
sca-r29b ZFP-FokI = sca-r29b ZFP-FokI (synthetic)
sca-36c ZFP-FokI = sca-36c ZFP-FokI (synthetic)
sca-36b ZFP-FokI = sca-36b ZFP-FokI (synthetic)
Sequence of sca-36b ZFP-FokI (synthetic) (chain, as listed by the source): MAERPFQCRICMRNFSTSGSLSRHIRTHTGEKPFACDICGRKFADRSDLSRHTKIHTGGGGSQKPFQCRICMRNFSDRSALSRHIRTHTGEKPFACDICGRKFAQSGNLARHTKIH

Sequence of sca-36a ZFP-FokI (synthetic) (chain, as listed by the source): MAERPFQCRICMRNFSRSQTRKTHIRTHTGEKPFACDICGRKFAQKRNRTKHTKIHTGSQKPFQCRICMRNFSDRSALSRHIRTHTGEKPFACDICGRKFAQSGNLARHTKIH
Sequence of sca-r29b ZFP-FokI (synthetic) (chain, as listed by the source): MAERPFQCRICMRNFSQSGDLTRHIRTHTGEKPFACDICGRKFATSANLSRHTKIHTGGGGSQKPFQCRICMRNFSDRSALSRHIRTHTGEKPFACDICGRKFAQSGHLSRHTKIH
Sequence of sca-36c ZFP-FokI (synthetic) (chain, as listed by the source): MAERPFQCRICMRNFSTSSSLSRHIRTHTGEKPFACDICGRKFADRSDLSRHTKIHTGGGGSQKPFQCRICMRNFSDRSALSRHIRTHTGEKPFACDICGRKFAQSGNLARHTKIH

B1: sca-36a site (dsDNA)
DNA 1: GAAGTCTGCCGT
DNA 2: ACGGCAGACTTC
B1: binds (sca-36a ZFP-FokI).

B2: sca-r29b site (dsDNA)
DNA 1: ACGTAGACTGAGG
DNA 2: CCTCAGTCTACGT
B2: binds (sca-r29b ZFP-FokI).

B3: sca-36c site (dsDNA)
DNA 1: GAAGTCTGCCGTT
DNA 2: AACGGCAGACTTC
B3: binds (sca-36c ZFP-FokI).

B4: sca-36b site (dsDNA)
DNA 1: GAAGTCTGCCGTT
DNA 2: AACGGCAGACTTC
B4: binds (sca-36b ZFP-FokI).
